Key:
monkey GPC3-His protein [1] = target: T1, monkey GPC3-His protein (monkey); assay: ELISA, monkey GPC3-His coated;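 further: Plate-coated antigen at 1 µg/mL, antibody binding 2 h at 37 °C, detected with HRP-labeled secondary antibody and TMB, absorbance at 450 nm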
T1 construct: Bought recombinant protein; also called monkey GPC3 protein
Description: The specific method is described as follows: The antigen protein was diluted with PBS to a final concentration of 1 μg/mL, and the diluent was added to a 96-well ELISA plate at 50 μL/well. The plate was sealed with a plastic film and incubated at 4° C. overnight, washed twice with PBS the next day, and a blocking solution [PBS+2% (w/w) BSA] was added for blocking at room temperature for 2 h. […] After incubation at 37° C. for 2 h, the plate was washed 3 times with PBS. A horseradish peroxidase (HRP)-labeled secondary antibody (purchased from Merck, Cat. No. AP113P) was added for incubation at 37° C. for 1 h, and the plate was washed 5 times with PBS. A TMB substrate was added at 50 μL/well for incubation at room temperature for 10 min, then a stop solution (1.0M HCl) was added at 50 μL/well. An ELISA plate reader (Multimode Plate Reader, EnSight, purchased from Perkin Elmer) was used to read OD_{450 nm} values, with results as shown in Table 4 to Table 6, FIG. 1A, FIG. 1B, and FIG. 1C.

[2] = target: T2, monkey GPC3 on HEK293T-monkey GPC3 cells (monkey); assay: FACS on HEK293T-monkey GPC3 cells;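 further: flow cytometry binding of test antibodies to the cells, read as mean fluorescence intensity, with half-maximal concentration taken from fitted curves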
T2 construct: whole, on cells
Description: The desired cells were expanded to a logarithmic growth phase in a T-75 cell culture flask, the medium was removed by pipetting, and the cells were washed twice with a PBS buffer, and digested with trypsin. Then a complete medium was added to stop the digestion, and the cells were blown into a single cell suspension. After counting, the cells were centrifuged, and the cell pellet was resuspended with an FACS buffer (PBS+2% fetal bovine serum) to 2×10⁶ cells/mL. The cell resuspension solution was added to a 96-well FACS reaction plate at 50 μl/well, and a chimeric antibody sample to be tested was added at 50 μl/well for incubation at 4° C. for 1 h. […] After the plate was centrifuged and washed 3 times with a PBS buffer, 100 μl of the resulting solution was assayed and analyzed by FACS (FACS Canto™, purchased from BD Biosciences). Data analysis was performed by software (FlowJo) to obtain the mean fluorescence intensity (MFI) of the cells. Then, analysis was performed by software (GraphPad Prism8), data were fitted, and EC₅₀ values were calculated.

human GPC3-His protein = target: T3, human GPC3-His protein (human, UniProt P51654 25-559); assay: SPR, antibody captured on Protein A chip, human GPC3-His analyte;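 further: measured at 25 °C flow cell, human GPC3-His injected at five concentrations up to 200 nM, 240 s association, up to 600 s dissociation, double-referenced, fitted to Langmuir 1:1 model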
T3 construct: also called human GPC3 protein; not shown: His tag

monkey GPC3-His protein [3] = target: T1, monkey GPC3-His protein; assay: SPR, antibody captured on Protein A chip, monkey GPC3-His analyte;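 further: run at 25 °C with 240 s association and up to 600 s dissociation, double-referenced, kinetics fitted to a 1:1 Langmuir binding model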

| Binder | OD450 at 0.0001 nM (monkey GPC3-His protein [1]) | OD450 at 0.001 nM (monkey GPC3-His protein [1]) | OD450 at 0.01 nM (monkey GPC3-His protein [1]) | OD450 at 0.1 nM (monkey GPC3-His protein [1]) | OD450 at 1 nM (monkey GPC3-His protein [1]) | OD450 at 10 nM (monkey GPC3-His protein [1]) | OD450 at 100 nM (monkey GPC3-His protein [1]) | EC50 [2] | Max MFI [2] | Kd (human GPC3-His protein) | koff (human GPC3-His protein) | kon (human GPC3-His protein) | Kd (monkey GPC3-His protein [3]) | koff (monkey GPC3-His protein [3]) | kon (monkey GPC3-His protein [3]) |
| --- | --- | --- | --- | --- | --- | --- | --- | --- | --- | --- | --- | --- | --- | --- | --- |
| F3.54.12 (antibody, human IgG1, kappa, V domains shown, Human-murine chimeric antibody) VH: QVQLQQSGAELVRPGASVKLSCKASGYTFTDYEMHWVKQTPVHGLEWIGAIDPETGNTAYIQKFKGKATLTTDKSSSTAYMELRSLTSEDSAVYYCTRFYSYSHWGQGTTLTVSS VL: DVVMTQTPLSLPVSLGDQASISCRSSQSLVHSNGNTYLHWYLQKPGQSPKLLIYKVSNRFSGVPDRFSGSSSGTDFTLKISRVEAEDLGVYFCSQNTHVPPTFGGGTKLEIKR | 0.08 OD450 | 0.1 OD450 | 0.41 OD450 | 1.57 OD450 | 2.21 OD450 | 2.32 OD450 | 2.76 OD450 | 0.72 nM | 115000 MFI | 4.09 nM | 0.00112 s⁻¹ | 275000 M⁻¹ s⁻¹ | 2.17 nM | 0.00117 s⁻¹ | 541000 M⁻¹ s⁻¹ |
| F1.110.24 (antibody, human IgG1, kappa, V domains shown, Human-murine chimeric antibody) VH: EVKLVESGGGLVQPGGSLKLSCAASGFTFSDFYMYWVRQTPEKRLEWVAFISNGGGSTYYPDTVKGRFTISRDNVKNTLYLQMSRLKSEDTAMYYCARPDTSWFAYWGQGSLVTVSA VL: DIQMTQTTSSLSASLGDRVTISCRASQDIDNYLNWYQQKPDGTVKVLISYTSRLHSGVPSRFSGSGSGTDYSLTISNLEQEDIATYFCQQGNTLPWTFGGGTKLEIKR | 0.05 OD450 | 0.05 OD450 | 0.06 OD450 | 0.29 OD450 | 0.31 OD450 | 0.47 OD450 | 0.41 OD450 | 0.42 nM | 5560 MFI | 2.5 nM | 0.000362 s⁻¹ | 145000 M⁻¹ s⁻¹ | 1.38 nM | 0.000342 s⁻¹ | 248000 M⁻¹ s⁻¹ |
| F2.55.11 (antibody, human IgG1, kappa, V domains shown, Human-murine chimeric antibody) VH: EVKLVESGGGLVKPGGSLKLSCAASGLTFSTCTMSWVRQTPAKRLEWVATISSGGGNTYYPDSVKGRFTISRDNARNTLYLQMSSLRSEDTAMYYCVRLYYDGSPYAMDYWGQGTSVTVSS VL: DIQMTQTTSSLSASLGDRVTISCRASQDISNHLNWYQQKPDGTVKLLIYYTSRLHSGVPSRFSGSGSGTDYSLTISNLEQEDIATYFCQQDSKPPPTFGSGTKLEIKR | 0.05 OD450 | 0.1 OD450 | 0.49 OD450 | 1.76 OD450 | 2.3 OD450 | 2.54 OD450 | 2.23 OD450 | 0.31 nM | 3530 MFI | 7.77 nM | 0.000443 s⁻¹ | 57000 M⁻¹ s⁻¹ | 5.24 nM | 0.000434 s⁻¹ | 82800 M⁻¹ s⁻¹ |
| F1.136.7 (antibody, human IgG1, kappa, V domains shown, Human-murine chimeric antibody) VH: EVQLQQSGPVMVKPGPSVKISCQTSGFTFTDYYIHWVKQSHGKSLEWIGLVFPYDGGTNYNQKFKDKATLTLDTSSSTAYMELNSLTSEDSAVYYCARAGGFSYALNYWGQGTSVTVSS VL: DIQMTQSPSSLSASLGGKVTITCKASQDINNYIAWYQHKPGKGPRLLIHFTSTLQPGIPSRFSGSGSGRDYSFSISNLEPEDIATYYCLQYDNLLLTFGAGTKLELKR | 0.05 OD450 | 0.05 OD450 | 0.1 OD450 | 0.62 OD450 | 1.33 OD450 | 1.96 OD450 | 1.96 OD450 | 1.94 nM | 6480 MFI | 0.837 nM | 7.03e-05 s⁻¹ | 84100 M⁻¹ s⁻¹ | 0.183 nM | 2.88e-05 s⁻¹ | 158000 M⁻¹ s⁻¹ |
| F1.145.22 (antibody, human IgG1, kappa, V domains shown, Human-murine chimeric antibody) VH: QVQLQQSGTDLARPGASVKLSCKASGYTFTSFGISWVKQRTGQGLEWIGEIYPRSGSPYYNEKFTGKATLTADKSSSTAYMELRSLTSEDSAVYFCAKDFGSSYVFDYWGQGTALTVSS VL: DIQMTQSPASLSASVGETVTITCRASENIYSYLTWYQQKQGKSPQLLVYNAKTLAEGVPSRFSGSGSGTQFSLKINSLQPEDFGTYYCQHHYGTPPTFGTGTKLDLKR | 0.05 OD450 | 0.07 OD450 | 0.25 OD450 | 1.23 OD450 | 2.17 OD450 | 2.39 OD450 | 2.4 OD450 | 0.69 nM | 6050 MFI | 0.754 nM | 0.000164 s⁻¹ | 218000 M⁻¹ s⁻¹ | 0.525 nM | 0.000164 s⁻¹ | 311000 M⁻¹ s⁻¹ |
| F2.154.1 (antibody, human IgG1, kappa, V domains shown, Human-murine chimeric antibody) VH: QVQLQQSGAELVRPGASVKLSCKASGYRFTDYEMHWVKQTPVHGLEWIGTIDPETGNTAYTQKFMDKATLTADKSSSTAYMELRSLTSEDSAVYYCTRGYSFTYWGQGTLATVSA VL: DVLMTQTPLSLPVSLGDQASISCRSSQNIVHSNGNTYLQWYLQKPGQSPKLLIFKVSNRFSGVPDRFSGSGSGTDFTLKISRVEAEDLGVYYCFQGSHVPFTFGTGTKLEIKR | 0.05 OD450 | 0.1 OD450 | 0.46 OD450 | 1.69 OD450 | 2.38 OD450 | 2.49 OD450 | 2.24 OD450 | 0.41 nM | 12400 MFI | 1.21 nM | 0.000563 s⁻¹ | 466000 M⁻¹ s⁻¹ | 0.706 nM | 0.000504 s⁻¹ | 713000 M⁻¹ s⁻¹ |
